This test addresses T1, ILT3Fc (human).
T1 construct: also called ILT3Fc-fusion protein; human ILT3Fc
Description: Octet (BLI), ILT3Fc on anti-human Fc biosensors, antibody supernatant 167 nM. Background: BLI is a label-free optical method that tracks binding on a fibre tip over time.

Where a chain is given by its changes, count along the chain named.

T1 sequence (chain, as listed by the source limits assumed): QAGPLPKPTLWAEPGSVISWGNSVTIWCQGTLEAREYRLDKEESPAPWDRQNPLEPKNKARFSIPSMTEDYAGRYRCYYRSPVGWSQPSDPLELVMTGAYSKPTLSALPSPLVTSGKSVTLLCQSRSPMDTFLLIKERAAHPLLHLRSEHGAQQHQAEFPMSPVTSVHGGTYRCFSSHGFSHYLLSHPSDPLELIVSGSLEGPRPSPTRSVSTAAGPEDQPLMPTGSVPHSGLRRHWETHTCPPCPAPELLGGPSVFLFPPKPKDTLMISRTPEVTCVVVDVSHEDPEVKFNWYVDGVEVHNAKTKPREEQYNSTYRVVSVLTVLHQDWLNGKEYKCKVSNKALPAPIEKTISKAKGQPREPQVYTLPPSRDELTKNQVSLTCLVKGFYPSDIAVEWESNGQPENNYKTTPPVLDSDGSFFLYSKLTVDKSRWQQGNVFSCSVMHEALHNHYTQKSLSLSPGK

B1: DX435 (antibody, V domains shown)
VH: EVQLQQSGPEMVKPGASVKISCKASGYAFTDYNIHWVKKSHGKSPEWIGHIYPYNKDTVFNQNKTKATLTVDKSTTTAYMDLRSLTSEDSAVYYCARGAVGYFDYWGQGTTLTVSS
VL: DIQMTQSPASLSASVGETVTITCRASGNIHNFLAWYQQKQGKSPQLLVYNAKTLADGVPSRFSGSGSGTQYSLKINSLQPEDFGSYYCQHFWSYPFTFGAGTKLELK
notes: Mouse hybridoma anti-ILT3 antibody tested as hybridoma supernatant
Regarding B1, the binding result was “binds”.

B2: DX440 (antibody, V domains shown)
VH: EVQLQQSGPELVKPGASVKISCKASGYTFSDYNMHWVKQSHGKSLKWIGHIFPYIGDTVYNQKFTSKATLTVDNSSSTGYMEIRSLTSEDSAVYYCARGAVGYFDYWGQGTTLTVSS
VL: B1 VL with F32Y, L46F, S85T, Y94F
notes: as for B1
With B2, the binding result is “binds”.

B3: DX439 (antibody, V domains shown)
VH: EVQLQQPGPELVKPGASVKISCKASGYTFTDYNMHWVRQRHGKSLEWIGHIYPYNGNTVYNQRFKNKATLNVDNFSSTAYMELRSLTSEDSAVYYCARGAVGYFDHWGQGTTLTVSS
VL: B1 VL with K42R, S85N, K103N
notes: as for B1
Turning to B3, the binding result was “binds”.

B4: DX446 (antibody, V domains shown)
VH: QIQLVQSGPELKKPGETVKISCKASGYTFTNYRMTWVKQAPGKGLKWMGWINTNTGDPTYAEELKGRFAFSSETSASTAYLQINNLKNEDTATYFCAREGFFNYAMDYWGQGTSVTVSS
VL: DILLTQSPAILSVSPGKRVSFSCRASQSIGTSIHWYQQRTNGSPRLLIKYASESISGIPSRFSGSGSGTDFTLSINSVESEDIADYYCQQSNSWPPTFGAGTKLELK
notes: Mouse hybridoma anti-ILT3 antibody tested as hybridoma supernatant; also called Anti-ILT3 (DX446)
B4: the binding result is listed as “binds”.

The values are drawn from patent publication US20190241655A1 (Merck Sharp & Dohme, published 2019).
